Experiments:
Test in all cases: cell-based or functional assay
[1] = target: human glucagon receptor (human, UniProt P47871 26-477)
[2] = target: T1, human GIP receptor (human, UniProt P48546 22-466)
T1 sequence (looked up): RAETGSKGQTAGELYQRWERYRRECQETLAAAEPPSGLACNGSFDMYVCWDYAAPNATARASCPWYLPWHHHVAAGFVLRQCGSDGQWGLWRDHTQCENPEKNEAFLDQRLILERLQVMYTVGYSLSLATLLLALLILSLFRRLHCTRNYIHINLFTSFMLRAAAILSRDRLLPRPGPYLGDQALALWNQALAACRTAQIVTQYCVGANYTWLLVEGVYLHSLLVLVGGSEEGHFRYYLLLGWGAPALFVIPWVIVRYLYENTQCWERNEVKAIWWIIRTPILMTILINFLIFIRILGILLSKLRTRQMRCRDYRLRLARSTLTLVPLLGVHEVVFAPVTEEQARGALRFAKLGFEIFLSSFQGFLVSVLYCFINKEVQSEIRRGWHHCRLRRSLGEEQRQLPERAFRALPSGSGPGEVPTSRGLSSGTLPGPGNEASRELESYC

[3] = target: human GLP-1 receptor (human, UniProt P43220 24-463)

B1: Example 7 (peptide)
peptide: YXEGTXTSDXSIXLDXKAQXEFIXXLIEGGKSSGAPPPS
modifications: Aib2, αMeF(2F)6, 4Pal10, αMeL13, Orn16, Aib20, D-Glu24, αMeY25, K17 and K31: K(AEEA2-(γ-Glu)-CO-(CH2)14-CH3), C-terminal NH2
In the case of B1, the “EC50, cAMP” value [1] is reported as greater than 9950 nM, the “EC50, cAMP” value [2] is reported as 0.00327 nM and the “EC50, cAMP” value [3] is reported as 0.00676 nM.

B2: Example 64 (peptide)
peptide: YXEGTXTSDXSIXLDXKAQXEXIXXLIEGGKSSGAPPPS
modifications: Aib2, αMeF(2F)6, 4Pal10, αMeL13, Orn16, Aib20, 3FPhe22, D-Glu24, αMeY25, K17 and K31: K(AEEA2-(γ-Glu)-CO-(CH2)12-CO2H), C-terminal NH2
In the case of B2, the “EC50, cAMP” value [1] is reported as greater than 9950 nM, the “EC50, cAMP” value [2] is reported as 0.0158 nM and the “EC50, cAMP” value [3] is reported as 0.557 nM. The “Emax, cAMP” value [3] was 97.3%.

B3: Example 65 (peptide)
peptide: YXEGTXTSDXSIXLDXKAQXEXIXXLIEGGKSSGAPPPS
modifications: Aib2, αMeF(2F)6, 4Pal10, αMeL13, Orn16, Aib20, 3,5FPhe22, D-Glu24, αMeY25, K17 and K31: K(AEEA2-(γ-Glu)-CO-(CH2)12-CO2H), C-terminal NH2
In the case of B3, the “EC50, cAMP” value [1] is reported as greater than 9950 nM, the “EC50, cAMP” value [2] is reported as 0.0139 nM and the “EC50, cAMP” value [3] is reported as 0.3 nM.

B4: Example 66 (peptide)
peptide: YXEGTXTSDXSIXLDXKAQXEXIXXLIEGGKSSGAPPPS
modifications: Aib2, αMeF(2F)6, 4Pal10, αMeL13, Orn16, Aib20, 1Nal22, D-Glu24, αMeY25, K17 and K31: K(AEEA2-(γ-Glu)-CO-(CH2)12-CO2H), C-terminal NH2
B4 was tested, and the “EC50, cAMP” value [1] was greater than 9950 nM, the “EC50, cAMP” value [2] was 0.0168 nM and the “EC50, cAMP” value [3] was 0.355 nM.

B5: Example 67 (peptide)
peptide: YXEGTXTSDXSIXLDXKAQXEFIXKLIEGGPSSGAPPPS
modifications: Aib2, αMeF(2F)6, 4Pal10, αMeL13, Orn16, Aib20, D-Glu24, K17 and K25: K(AEEA2-(γ-Glu)-(4-(4-tert-butylphenyl)butanoyl)), C-terminal NH2
B5 was tested, and the “EC50, cAMP” value [1] was greater than 9950 nM, the “EC50, cAMP” value [2] was 0.00795 nM and the “EC50, cAMP” value [3] was 2.63 nM. For the same binder, the “Emax, cAMP” value [3] was 91.7%.

B6: Example 68 (peptide)
peptide: YXEGTXTSDXSIXLDXKAQXEFIEKLIEGGPSSGAPPPS
modifications: Aib2, αMeF(2F)6, 4Pal10, αMeL13, Orn16, Aib20, K17 and K25: K(AEEA2-(γ-Glu)-(4-(4-tert-butylphenyl)butanoyl)), C-terminal NH2
B6 was tested, and the “EC50, cAMP” value [1] was greater than 9950 nM, the “EC50, cAMP” value [2] was 0.0105 nM and the “EC50, cAMP” value [3] was 0.668 nM. The “Emax, cAMP” value [3] was 95.9%.

B7: Example 69 (peptide)
peptide: YXEGTXTSDXSIXLDXIAQXKFIKXLIEGGPSSGAPPPS
modifications: Aib2, αMeF(2F)6, 4Pal10, αMeL13, Orn16, Aib20, αMeY25, K21 and K24: K(AEEA2-(γ-Glu)-CO-(CH2)12-CO2H), C-terminal NH2
B7 was tested, and the “EC50, cAMP” value [1] was greater than 9950 nM, the “EC50, cAMP” value [2] was 0.0265 nM and the “Emax, cAMP” value [2] was 99%. The “EC50, cAMP” value [3] was 0.276 nM.

B8: Example 70 (peptide)
peptide: YXEGTXTSDXSIXLDXIAQXEFIKXLIKGGPSSGAPPPS
modifications: Aib2, αMeF(2F)6, 4Pal10, αMeL13, Orn16, Aib20, αMeY25, K24 and K28: K(AEEA2-(γ-Glu)-CO-(CH2)12-CO2H), C-terminal NH2
B8 was tested, and the “EC50, cAMP” value [1] was greater than 9950 nM, the “EC50, cAMP” value [2] was 0.0182 nM and the “Emax, cAMP” value [2] was 89.1%. The “EC50, cAMP” value [3] was 0.283 nM.

B9: Example 71 (peptide)
peptide: YXEGTXTSDXSIXLDXIAQXEFIKXLIEGGKSSGAPPPS
modifications: Aib2, αMeF(2F)6, 4Pal10, αMeL13, Orn16, Aib20, αMeY25, K24 and K31: K(AEEA2-(γ-Glu)-CO-(CH2)12-CO2H), C-terminal NH2
In the case of B9, the “EC50, cAMP” value [1] is reported as greater than 9950 nM, the “EC50, cAMP” value [2] is reported as 0.0171 nM and the “Emax, cAMP” value [2] is reported as 93.8%. For the same binder, the “EC50, cAMP” value [3] was 0.246 nM.

B10: Example 72 (peptide)
peptide: YXEGTXTSDXSIXLDXIAQXEFIKXLIEGGPSSGAPPPSK
modifications: Aib2, αMeF(2F)6, 4Pal10, αMeL13, Orn16, Aib20, αMeY25, K24 and K40: K(AEEA2-(γ-Glu)-CO-(CH2)12-CO2H), C-terminal NH2
With B10 the “EC50, cAMP” value [1] was greater than 9950 nM, the “EC50, cAMP” value [2] was 0.016 nM and the “Emax, cAMP” value [2] was 96.5%. The “EC50, cAMP” value [3] was 0.245 nM.

B11: Example 73 (peptide)
peptide: YXEGTXTSDXSIXLDXIAQXKFIXXLIKGGPSSGAPPPS
modifications: Aib2, αMeF(2F)6, 4Pal10, αMeL13, Orn16, Aib20, D-Glu24, αMeY25, K21 and K28: K(AEEA2-(γ-Glu)-CO-(CH2)12-CO2H), C-terminal NH2
In the case of B11, the “EC50, cAMP” value [1] is reported as greater than 9950 nM, the “EC50, cAMP” value [2] is reported as 0.0207 nM and the “Emax, cAMP” value [2] is reported as 97.1%. The “EC50, cAMP” value [3] was 0.437 nM.

B12: Example 8 (peptide)
peptide: YXEGTXTSDXSIXLDXKAQXEFIXXLIEGGKSSGAPPPS
modifications: Aib2, αMeF(2F)6, 4Pal10, αMeL13, Orn16, Aib20, D-Glu24, αMeY25, K17 and K31: K(AEEA2-(γ-Glu)-CO-(CH2)12-CH3), C-terminal NH2
In the case of B12, the “EC50, cAMP” value [1] is reported as greater than 9950 nM, the “EC50, cAMP” value [2] is reported as 0.00307 nM and the “EC50, cAMP” value [3] is reported as 0.0157 nM.

B13: Example 74 (peptide)
peptide: YXEGTXTSDXSIXLDXIAQXKFIXXLIEGGKSSGAPPPS
modifications: Aib2, αMeF(2F)6, 4Pal10, αMeL13, Orn16, Aib20, D-Glu24, αMeY25, K21 and K31: K(AEEA2-(γ-Glu)-CO-(CH2)12-CO2H), C-terminal NH2
For B13, the “EC50, cAMP” value [1] was greater than 9950 nM, the “EC50, cAMP” value [2] was 0.0156 nM and the “Emax, cAMP” value [2] was 93.3%. For the same binder, the “EC50, cAMP” value [3] was 0.334 nM.

B14: Example 75 (peptide)
peptide: YXEGTXTSDXSIXLDXIAQXKFIXXLIEGGPSSGAPPPSK
modifications: Aib2, αMeF(2F)6, 4Pal10, αMeL13, Orn16, Aib20, D-Glu24, αMeY25, K21 and K40: K(AEEA2-(γ-Glu)-CO-(CH2)12-CO2H), C-terminal NH2
For B14, the “EC50, cAMP” value [1] was greater than 9950 nM, the “EC50, cAMP” value [2] was 0.0182 nM and the “Emax, cAMP” value [2] was 92.3%. The “EC50, cAMP” value [3] was 0.411 nM.

B15: Example 76 (peptide)
peptide: YXEGTXTSDXSIXLDXKAQXKFIXXLIEGGPSSGAPPPS
modifications: Aib2, αMeF(2F)6, 4Pal10, αMeL13, Orn16, Aib20, D-Glu24, αMeY25, K17 and K21: K(AEEA-(γ-Glu)-CO-(CH2)12-CO2H), C-terminal NH2
With B15 the “EC50, cAMP” value [1] was greater than 9950 nM, the “EC50, cAMP” value [2] was 0.0205 nM and the “EC50, cAMP” value [3] was 0.527 nM.

B16: Example 77 (peptide)
peptide: YXEGTXTSDXSIXLDXKAQXKFIXXLIEGGPSSGAPPPS
modifications: Aib2, αMeF(2F)6, 4Pal10, αMeL13, Orn16, Aib20, D-Glu24, αMeY25, K17 and K21: K(AEEA3-(γ-Glu)-CO-(CH2)12-CO2H), C-terminal NH2
B16 was tested, and the “EC50, cAMP” value [1] was greater than 9950 nM, the “EC50, cAMP” value [2] was 0.0288 nM and the “EC50, cAMP” value [3] was 3.03 nM. The “Emax, cAMP” value [3] was 87%.

B17: Example 78 (peptide)
peptide: YXEGTXTSDXSIXLDXKAQXKFIXXLIEGGPSSGAPPPS
modifications: Aib2, αMeF(2F)6, 4Pal10, αMeL13, Orn16, Aib20, D-Glu24, αMeY25, K17 and K21: K(AEEA2-CO-(CH2)12-CO2H), C-terminal NH2
B17 was tested, and the “EC50, cAMP” value [1] was greater than 9950 nM, the “EC50, cAMP” value [2] was 0.0145 nM and the “EC50, cAMP” value [3] was 0.286 nM.

B18: Example 79 (peptide)
peptide: YXEGTXTSDXSIXLDXKAQXEFIKXLIEGGPSSGAPPPS
modifications: Aib2, αMeF(2F)6, 4Pal10, αMeL13, Orn16, Aib20, αMeY25, K17 and K24: K(AEEA-(γ-Glu)-CO-(CH2)12-CO2H), C-terminal NH2
In the case of B18, the “EC50, cAMP” value [1] is reported as greater than 9950 nM, the “EC50, cAMP” value [2] is reported as 0.013 nM and the “EC50, cAMP” value [3] is reported as 0.223 nM.

B19: Example 80 (peptide)
peptide: YXEGTXTSDXSIXLDXKAQXEFIKXLIEGGPSSGAPPPS
modifications: Aib2, αMeF(2F)6, 4Pal10, αMeL13, Orn16, Aib20, αMeY25, K17 and K24: K(AEEA3-(γ-Glu)-CO-(CH2)12-CO2H), C-terminal NH2
With B19 the “EC50, cAMP” value [1] was greater than 9950 nM, the “EC50, cAMP” value [2] was 0.0245 nM and the “Emax, cAMP” value [2] was 92.4%. For the same binder, the “EC50, cAMP” value [3] was 0.718 nM.
